# Data reported in patent US20240270806A1 (Chugai, published 2024).
# Substitutions are numbered along the chain they refer to. Numbers in names are those of the source.
# T1: Human IL-12 (human, UniProt P29460 23-328; P29459 23-219)
# T1 construct: also called human Interleukin-12
# T1 sequence (looked up) 1: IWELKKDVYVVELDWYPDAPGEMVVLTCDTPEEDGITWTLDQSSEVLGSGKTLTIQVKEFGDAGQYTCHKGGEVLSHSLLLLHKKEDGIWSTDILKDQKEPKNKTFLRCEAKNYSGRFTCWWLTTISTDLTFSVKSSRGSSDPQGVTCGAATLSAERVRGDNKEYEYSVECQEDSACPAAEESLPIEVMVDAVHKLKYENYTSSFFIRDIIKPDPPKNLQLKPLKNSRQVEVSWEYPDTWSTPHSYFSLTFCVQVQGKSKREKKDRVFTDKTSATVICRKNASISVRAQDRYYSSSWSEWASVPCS
# T1 sequence (looked up) 2: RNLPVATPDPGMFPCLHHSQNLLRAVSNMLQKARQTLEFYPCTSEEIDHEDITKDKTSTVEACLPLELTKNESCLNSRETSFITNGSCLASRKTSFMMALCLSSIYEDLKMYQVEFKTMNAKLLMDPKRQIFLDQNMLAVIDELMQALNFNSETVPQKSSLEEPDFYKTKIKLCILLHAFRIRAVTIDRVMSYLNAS
# B1: Anti-IL-12 antibody, Ab1, comprising VH release enhancing mutations (Ab101H89-12aa0054-C8/Ab102L69-SK1) (antibody, V domains shown)
# VH: QVQLVQSGAEVKKPGSSVKVSCKASGGTFSDYYLHWSRQAPGQGLEWMGWIDPENGDTEYAPKFQGRVTITADESTSTAYMELSSLRSEDTAVYYCARNKELRYIDVWGQGTLVTVSS
# VL: DIVMTQSPLSLPVTPGEPASISCRASQSISINLHWYQQKPGQAPRQLIAFASQSISGVPSRFSGSGSGTDFTLTISSLQPEDFATYYCQQSNSFPLTFGQGTKVEIKR
# notes: Homodimer of a light and a heavy chain; Mutations V37S, F100aI / L46Q, Y49A; also called Ab101H89/Ab102L69
# B2: Anti-IL-12 antibody Ab1, variable region variant Ab101H89/Ab102L994 (antibody, V domains shown)
# VH: B1 VH
# VL: B1 VL with N92Y
# notes: Mutations V37S, F100aI / L46Q, Y49A, N92Y
# B3: Anti-IL-12 antibody Ab1, variable region variant Ab101H/Ab102L (antibody, V domains shown)
# VH: B1 VH with S37V, I105F
# VL: B1 VL with Q46L, A49Y
# B4: Anti-IL-12 antibody Ab1, variable region variant Ab101H725/Ab102L1087 (antibody, V domains shown)
# VH: B1 VH with G56Q, N99T
# VL: B1 VL with A25S, Q27D
# notes: Mutations V37S, G55Q, N95T, F100aI / A25S, Q27D, L46Q, Y49A
# B5: hIL12_His tag (ligand)
# chain 1: T1 sequence (looked up) 1
# chain 2: T1 sequence (looked up) 2
# Columns and labels:
# Human IL-12 = biological target: T1, Human IL-12; test: SPR, BIACORE T200, 37 degrees C, pH 7.4; antibody captured by anti-human Fc antibody, human IL-12 injected at 5 and 20 nM; 1:1 binding model
# Description: The affinity of anti-IL12 antibodies binding to human IL-12 at pH 7.4 was determined at 37 degrees C. using BIACORE® T200 instrument (GE Healthcare). […] (GE Healthcare) was immobilized onto all flow cells of a CM4 sensor chip using amine coupling kit (GE Healthcare). All antibodies and analytes were prepared in ACES pH 7.4 containing 20 mM ACES, 150 mM NaCl, 0.05% Tween 20, 0.005% NaN₃. Each antibody was captured onto the sensor surface by anti-human Fc antibody. Antibody capture levels were aimed at 50 resonance unit (RU). Human IL-12 was injected at 5 and 20 nM, followed by dissociation. Sensor surface was regenerated each cycle with 3M MgCl₂.
# [1] = biological target: T2, Human IL-12 receptor (human IL-12Rb1 and IL-12Rb2) (human, UniProt P42701 24-662; Q99665 24-862); test: cell-based or functional assay
# T2 sequence (Q99665 24-862, chain 2 of 2, other chains not shown): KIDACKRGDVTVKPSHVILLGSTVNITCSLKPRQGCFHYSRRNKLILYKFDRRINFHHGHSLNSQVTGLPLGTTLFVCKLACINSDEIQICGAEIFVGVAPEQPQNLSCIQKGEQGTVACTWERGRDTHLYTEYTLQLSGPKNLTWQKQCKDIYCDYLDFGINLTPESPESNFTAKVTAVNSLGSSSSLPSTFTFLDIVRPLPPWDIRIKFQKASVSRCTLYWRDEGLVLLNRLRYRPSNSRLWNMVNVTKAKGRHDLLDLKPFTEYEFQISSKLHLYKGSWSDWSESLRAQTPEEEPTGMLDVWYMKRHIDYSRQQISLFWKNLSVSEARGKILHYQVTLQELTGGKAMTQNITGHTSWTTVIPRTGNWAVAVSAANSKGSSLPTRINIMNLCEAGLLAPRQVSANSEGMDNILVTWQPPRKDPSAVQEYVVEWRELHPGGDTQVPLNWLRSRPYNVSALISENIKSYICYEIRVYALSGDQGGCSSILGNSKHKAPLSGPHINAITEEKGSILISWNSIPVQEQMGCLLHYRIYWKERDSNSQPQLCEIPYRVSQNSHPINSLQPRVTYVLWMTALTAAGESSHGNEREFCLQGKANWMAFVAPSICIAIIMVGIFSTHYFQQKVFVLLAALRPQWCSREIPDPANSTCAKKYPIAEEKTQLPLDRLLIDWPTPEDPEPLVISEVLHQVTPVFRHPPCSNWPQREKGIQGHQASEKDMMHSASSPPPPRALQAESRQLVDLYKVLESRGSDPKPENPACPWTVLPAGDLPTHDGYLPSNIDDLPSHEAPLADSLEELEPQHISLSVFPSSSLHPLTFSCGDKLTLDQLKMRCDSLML
# [2] = biological target: T2, Human IL-12 receptor (human IL-12Rb1 …); test: cell-based or functional assay; remark: listed apart in the source
# [3] = biological target: T2, Human IL-12 receptor (human IL-12Rb1 …); test: cell-based or functional assay; remark: listed apart in the source
binder,measurement,setting,value
B1,Kd,Human IL-12,6.52 nM
B2,Kd,Human IL-12,3.51 nM
B3,Kd,Human IL-12,1.45 nM
same,kon,Human IL-12,1.9e+06 M⁻¹ s⁻¹
B4,Kd,Human IL-12,1.27 nM
B5,"EC50 (read off the curve), IL-12 luciferase reporter assay (+ MTSP1) [all three graphs]",[1],~0.2 nM
same,"EC50 (read off the curve), IL-12 luciferase reporter assay (without protease) [all three graphs]",[1],~0.2 nM
same,"EC50 (read off the curve), IL-12 luciferase reporter assay (+ MTSP1)",[2],~0.2 nM
same,"EC50 (read off the curve), IL-12 luciferase reporter assay (without protease)",[2],~0.2 nM
same,"EC50 (read off the curve), IL-12 luciferase reporter assay (without protease) [left graph]",[3],~0.1 nM
